# Values of other authors in patent US20250052762A1, “PEPTIDASE CLEAVABLE SUBSTRATES AND METHODS OF IDENTIFICATION AND USE THEREOF” (Alaunus Biosciences, Inc., priority 2020, published 2025).
# “Also recorded” adds a separate entry of the source. Square brackets hold non-standard residues; d marks the D form. Ends that are not written are not given here. * marks the point of attachment. MeOSuc = COC(=O)CCC(=O)*; 2Abz = Nc1ccccc1C(=O)O; dnp = not defined here; SBn = c1ccc(CS*)cc1
# T1: neutrophil elastase (Homo sapiens, UniProt P08246)
# T1 sequence (P08246 30-267): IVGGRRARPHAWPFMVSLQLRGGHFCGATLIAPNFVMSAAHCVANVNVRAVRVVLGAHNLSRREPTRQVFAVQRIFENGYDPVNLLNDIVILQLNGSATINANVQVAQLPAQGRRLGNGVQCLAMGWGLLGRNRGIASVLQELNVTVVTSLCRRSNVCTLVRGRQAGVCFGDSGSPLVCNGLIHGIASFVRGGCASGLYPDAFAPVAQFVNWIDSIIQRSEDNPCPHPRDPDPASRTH
# Legend:
# [1] = molecular target: granzyme B (Homo sapiens, UniProt P10144); conditions: for measured catalytic efficiency: candidate natural substrates, fluorescence assay (Boivin et al., 2012)
# granzyme B, sequence (P10144 21-247): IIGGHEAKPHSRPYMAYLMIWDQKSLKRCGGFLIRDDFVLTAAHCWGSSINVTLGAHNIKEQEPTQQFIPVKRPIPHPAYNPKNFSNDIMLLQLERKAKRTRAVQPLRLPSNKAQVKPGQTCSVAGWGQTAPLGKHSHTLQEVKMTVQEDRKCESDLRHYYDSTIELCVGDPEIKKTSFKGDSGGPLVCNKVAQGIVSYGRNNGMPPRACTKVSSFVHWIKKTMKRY
# [2] = molecular target: MMP14 (Homo sapiens, UniProt P50281); conditions: for Michaelis constant (KM): magnitude in words
# [3] = molecular target: T1, neutrophil elastase
# [4] = magnitude in words, top-most active substrates in BRENDA database
# [5] = top-most active substrates in BRENDA database
molecule,measurement,setting,value
2-aminobenzoyl-IEPDSSMESK-dnp ([2Abz]IEPDSSMESK-dnp; reading uncertain; also: printed as 2-aminobenzoyl-IEPDSSMESK-dnp) [fluorescent tool substrate for granzyme B],estimated catalytic efficiency,"[1]; estimated from KM and kcat, fluorescence assay (Sun et al., 2001)",758 mM⁻¹ s⁻¹
same,Michaelis constant (KM),[1]; [4],micromolar
same,turnover number (kcat),[1]; [5],1 to 5 s⁻¹
"collagen I alpha-1: collagen I alpha-1 chain, natural substrate of MMP14",Michaelis constant (KM),[2]; BRENDA database,piocomolar; also recorded: picomolar
"collagen I alpha-2: collagen I alpha-2 chain, natural substrate of MMP14",Michaelis constant (KM),[2]; BRENDA database,piocomolar; also recorded: picomolar
"methoxycoumarin-4-acetyl-Lys-Pro-Leu-Gly-Leu-Lys (2,4-dinitrophenyl)-Ala-Arg-NH2 ({methoxycoumarin‑4‑acetyl}-KPLGLK(2,4‑dinitrophenyl)AR-NH2; not fully specified; printed as methoxycoumarin-4-acetyl-Lys-Pro-Leu-Gly-Leu-Lys (2,4-dinitrophenyl)-Ala-Arg-NH₂)",catalytic efficiency,"[2]; measured by fluorescence assay, BRENDA database",550 to 2429 mM⁻¹ s⁻¹
same,turnover number,[2]; reported in BRENDA database,0.33 to 6.8 s⁻¹
methoxysuccinyl-Ala-Ala-Pro-Val-thiobenzyl ester (MeOSuc-AAPV-SBn; SMILES COC(=O)CCC(=O)N[C@@H](C)C(=O)N[C@@H](C)C(=O)N1CCC[C@H]1C(=O)N[C@H](C(=O)SCc1ccccc1)C(C)C) [fluorescent tool substrate for neutrophil elastase],estimated catalytic efficiency,"[3]; estimated from KM and kcat, fluorescence assay (Stein et al., 1987)",9565 mM⁻¹ s⁻¹
same,Michaelis constant (KM),[3]; [4],micromolar
same,turnover number (kcat),[3]; [5],up to 22 s^−1
"biglycan: candidate natural substrate of granzyme B (protein, UniProt P21810 38-368, looked up) Biglycan: DEEASGADTSGVLDPDSVTPTYSAMCPFGCHCHLRVVQCSDLGLKSVPKEISPDTTLLDLQNNDISELRKDDFKGLQHLYALVLVNNKISKIHEKAFSPLRKLQKLYISKNHLVEIPPNLPSSLVELRIHDNRIRKVPKGVFSGLRNMNCIEMGGNPLENSGFEPGAFDGLKLNYLRISEAKLTGIPKDLPETLNELHLDHNKIQAIELEDLLRYSKLYRLGLGHNQIRMIENGSLSFLPTLRELHLDNNKLARVPSGLPDLKLLQVVYLHSNNITKVGVNDFCPMGFGVKRAYYNGISLFNNPVPYWEVQPATFRCVTDRLAIQFGNYKK",measured catalytic efficiency,[1],1.7 mM⁻¹ s⁻¹
"decorin: candidate natural substrate of granzyme B (protein, UniProt P07585 31-359, looked up) Decorin: DEASGIGPEVPDDRDFEPSLGPVCPFRCQCHLRVVQCSDLGLDKVPKDLPPDTTLLDLQNNKITEIKDGDFKNLKNLHALILVNNKISKVSPGAFTPLVKLERLYLSKNQLKELPEKMPKTLQELRAHENEITKVRKVTFNGLNQMIVIELGTNPLKSSGIENGAFQGMKKLSYIRIADTNITSIPQGLPPSLTELHLDGNKISRVDAASLKGLNNLAKLGLSFNSISAVDNGSLANTPHLRELHLDNNKLTRVPGGLAEHKYIQVVYLHNNNISVVGSSDFCPPGHNTKKASYSGVSLFSNPVQYWEIQPSTFRCVYVRSAIQLGNYK",measured catalytic efficiency,[1],1 mM⁻¹ s⁻¹
"beta-glycan: candidate natural substrate of granzyme B (protein, UniProt Q03167 21-851, looked up) Transforming growth factor …: GPEPGALCELSPVSASHPVQALMESFTVLSGCASRGTTGLPQEVHVLNLRTAGQGPGQLQREVTLHLNPISSVHIHHKSVVFLLNSPHPLVWHLKTERLATGVSRLFLVSEGSVVQFSSANFSLTAETEERNFPHGNEHLLNWARKEYGAVTSFTELKIARNIYIKVGEDQVFPPKCNIGKNFLSLNYLAEYLQPKAAEGCVMSSQPQNEEVHIIELITPNSNPYSAFQVDITIDIRPSQEDLEVVKNLILILKCKKSVNWVIKSFDVKGSLKIIAPNSIGFGKESERSMTMTKSIRDDIPSTQGNLVKWALDNGYSPITSYTMAPVANRFHLRLENNAEEMGDEEVHTIPPELRILLDPGALPALQNPPIRGGEGQNGGLPFPFPDISRRVWNEEGEDGLPRPKDPVIPSIQLFPGLREPEEVQGSVDIALSVKCDNEKMIVAVEKDSFQASGYSGMDVTLLDPTCKAKMNGTHFVLESPLNGCGTRPRWSALDGVVYYNSIVIQVPALGDSSGWPDGYEDLESGDNGFPGDMDEGDASLFTRPEIVVFNCSLQQVRNPSSFQEQPHGNITFNMELYNTDLFLVPSQGVFSVPENGHVYVEVSVTKAEQELGFAIQTCFISPYSNPDRMSHYTIIENICPKDESVKFYSPKRVHFPIPQADMDKKRFSFVFKPVFNTSLLFLQCELTLCTKMEKHPQKLPKCVPPDEACTSLDASIIWAMMQNKKTFTKPLAVIHHEAESKEKGPSMKEPNPISPPIFHGLDTLTVMGIAFAAFVIGALLTGALWYIYSHTGETAGRQQVPTSPPASENSSAAHSIGSTQSTPCSSSSTA",measured catalytic efficiency,[1],5.9 mM⁻¹ s⁻¹
